According to patent US20190315845A1 (ANNEXON, published 2019):
Changes are numbered by the printed parent chain. In names and notes the source's numbering stands. Where two headings read alike, the source gives them in different places.

How the values were obtained:
human C1q [1] = molecular target: T1, human C1q (human, UniProt P02745 23-245; P02746 28-253; P02747 29-245); experiment: competition ELISA on plate-bound human C1q against biotinylated mouse M1 antibody (0.02 µg/ml); bound biotin-M1 read as OD450
T1 construct: Purified human C1q protein (plate-coated in ELISA, ligand or analyte in SPR, in human serum in CH50); also called hC1q; complement factor C1q
From the text: (§1) FIG. 4A, FIG. 4B, FIG. 4C, and FIG. 4D depicts competition ELISA assays for human C1q. A dilution series of purified humanized anti-C1q antibodies were competed against a fixed concentration of biotinylated monoclonal antibody M1 for binding to human C1q. Bound biotinylated M1 antibody was detected using streptavidin-peroxidase conjugate and TMB substrate. FIG. 4A depicts the results with the humanized antibodies VH1/Vκ1, VH1/Vκ2, and VH1/Vκ3. FIG. 4B depicts the results with the humanized antibodies VH1/Vκ4, VH2/Vκ1, VH2/Vκ2, VH2/Vκ3, and VH2/Vκ4. FIG. 4C depicts the results with the humanized antibodies VH3/Vκ1, VH3/Vκ2, VH3/Vκ3, and VH3/Vκ4. FIG. 4D depicts the results with the humanized antibodies VH4/Vκ1, VH4/Vκ2, […], and VH4/Vκ4.
(§2) The binding of humanized M1 variants to human C1q was analyzed by competition ELISA. A three-fold dilution series of test antibody (5 μg/ml to 0.002 μg/ml) was premixed with a constant concentration of biotinylated mouse M1 antibody (0.02 μg/ml, final concentration) before incubating for 1 hour at 37° C. with shaking on plates pre-coated with human C1q at 1.0 μg/ml. The binding of mouse M1 antibody was detected with streptavidin-peroxidase conjugate (Sigma-Aldrich cat. no. 55512) and TMB (3,3′,5,5′-tetramethylbenzidine) substrate (Thermo Scientific cat. no. 34029). The reaction was stopped with 1M HCl, absorbance read at 450 nm on a Dynex Technologies MRX TC II plate reader and the binding curves plotted.

human C1q [2] = molecular target: T1, human C1q; experiment: competition ELISA, plate-coated human C1q; competitor biotinylated mouse M1 (0.02 µg/ml); IC50 normalised to chimeric M1
Method: as §2
The binding curves were used to calculate IC₅₀ values (concentration of test antibody that inhibits labelled competitor binding by 50%) for each antibody normalized to the IC₅₀ of chimeric M1 and antibody yields from NS0 transfectants were also compared (Table 1).

human C1q [3] = molecular target: T1, human C1q; experiment: competition ELISA on plate-bound human C1q against biotinylated mouse M1 antibody (0.02 µg/ml); bound biotin-M1 read as OD450; remark: listed apart in the source
From the text: as §1, §2

human C1q [4] = molecular target: T1, human C1q; experiment: as above; remark: listed apart in the source
From the text: as §1, §2

mouse C1q [5] = molecular target: T2, mouse C1q (mouse, UniProt P98086 23-245; P14106 26-253; Q02105 30-246); experiment: competition ELISA, plate-coated mouse C1q; competitor biotinylated chimeric M1 (0.03 µg/ml); IC50 normalised to chimeric M1
T2 construct: Purified mouse C1q protein; also called mC1q
Method: (§3) The binding of humanized M1 variants to mouse C1q was analyzed by competition ELISA on four selected antibodies, VH1/Vκ1, VH3/Vκ1, VH3/Vκ4 and VH4/Vκ3. An irrelevant IgG4 (S241P L248E) antibody was also included as a binding control. A three-fold dilution series of test antibody (100 μg/ml to 0.046 μg/ml) was premixed with a constant concentration of biotinylated chimeric M1 antibody (0.03 μg/ml, final concentration) before incubating for 1 hour at 37° C. with shaking on plates pre-coated with mouse C1q at 5.0 μg/ml. The binding of chimeric M1 antibody was detected with streptavidin-peroxidase conjugate (Sigma-Aldrich cat. no. S5512) and TMB substrate (Thermo Scientific cat. no. 34029). The reaction was stopped with 1M HCl, absorbance read at 450 nm on a Dynex Technologies MRX TC II plate reader and the binding curves plotted.
(§4) The binding curves were used to calculate IC₅₀ values for each antibody normalized to the IC₅₀ of chimeric M1 (Table 2).

mouse C1q [6] = molecular target: T2, mouse C1q; experiment: competition ELISA on plate-bound mouse C1q against biotinylated chimeric M1 antibody (0.03 µg/ml); bound biotin-chimeric M1 read as OD450
Method: as §3, §4

rat C1q = rat C1q (rat, UniProt P31720 23-245; P31721 26-253; P31722 29-245); experiment: cell-based or functional assay
human C1q [7] = molecular target: T1, human C1q; experiment: cell-based or functional assay
human C1q [8] = molecular target: T1, human C1q; experiment: competition ELISA on plate-bound human C1q against biotinylated mouse M1 antibody (0.02 µg/ml); bound biotin-M1 read as OD450; remark: listed apart in the source
From the text: as §1, §2

human C1q [9] = molecular target: T1, human C1q; experiment: SPR Biacore T200, 1:1 model; IgG immobilised (ligand), hC1q analyte; mean of 2 analyses
human C1q [10] = molecular target: T1, human C1q; experiment: SPR Biacore T200, 1:1 model, single cycle kinetics; hC1q immobilised (ligand), IgG analyte
human C1q [11] = molecular target: T1, human C1q; experiment: SPR Biacore T200, 1:1 model; IgG immobilised (ligand), hC1q analyte; analysis 2
human C1q [12] = molecular target: T1, human C1q; experiment: SPR Biacore T200, heterogeneous ligand model, kd2; hC1q immobilised (ligand), IgG analyte
human C1q [13] = molecular target: T1, human C1q; experiment: SPR Biacore T200, heterogeneous ligand model, kd1; hC1q immobilised (ligand), IgG analyte
human C1q [14] = molecular target: T1, human C1q; experiment: SPR Biacore T200, heterogeneous ligand model, KD1; hC1q immobilised (ligand), IgG analyte
human C1q [15] = molecular target: T1, human C1q; experiment: SPR Biacore T200, 1:1 model; IgG immobilised (ligand), hC1q analyte; analysis 1
human C1q [16] = molecular target: T1, human C1q; experiment: SPR Biacore T200, heterogeneous ligand model, ka2; hC1q immobilised (ligand), IgG analyte
human C1q [17] = molecular target: T1, human C1q; experiment: SPR Biacore T200, heterogeneous ligand model, KD2; hC1q immobilised (ligand), IgG analyte
human C1q [18] = molecular target: T1, human C1q; experiment: SPR Biacore T200, heterogeneous ligand model, ka1; hC1q immobilised (ligand), IgG analyte

rat C1q, sequence (P31720 23-245 limits assumed, chain 1 of 3): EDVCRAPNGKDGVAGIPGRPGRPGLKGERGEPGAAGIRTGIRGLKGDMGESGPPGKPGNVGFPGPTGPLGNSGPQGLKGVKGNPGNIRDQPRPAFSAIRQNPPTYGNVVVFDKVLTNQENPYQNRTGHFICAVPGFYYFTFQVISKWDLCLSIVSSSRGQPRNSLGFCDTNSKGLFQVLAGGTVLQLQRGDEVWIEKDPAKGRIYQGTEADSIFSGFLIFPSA
rat C1q, sequence (P31721 26-253 limits assumed, chain 2 of 3): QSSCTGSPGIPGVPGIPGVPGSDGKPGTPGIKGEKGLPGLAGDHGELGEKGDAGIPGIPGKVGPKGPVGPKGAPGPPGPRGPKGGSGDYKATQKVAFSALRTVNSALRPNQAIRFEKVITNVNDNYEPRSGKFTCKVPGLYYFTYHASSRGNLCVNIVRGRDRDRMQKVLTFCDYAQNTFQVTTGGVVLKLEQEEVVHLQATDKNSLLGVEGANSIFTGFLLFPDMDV
rat C1q, sequence (P31722 29-245 limits assumed, chain 3 of 3): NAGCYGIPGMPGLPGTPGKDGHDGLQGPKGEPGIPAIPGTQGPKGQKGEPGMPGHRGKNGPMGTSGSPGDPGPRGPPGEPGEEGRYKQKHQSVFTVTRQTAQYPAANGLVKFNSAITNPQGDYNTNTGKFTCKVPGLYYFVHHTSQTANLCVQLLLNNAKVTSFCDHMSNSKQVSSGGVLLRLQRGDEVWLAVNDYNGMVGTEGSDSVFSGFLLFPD
T1 sequence (P02745 23-245 limits assumed, chain 1 of 3): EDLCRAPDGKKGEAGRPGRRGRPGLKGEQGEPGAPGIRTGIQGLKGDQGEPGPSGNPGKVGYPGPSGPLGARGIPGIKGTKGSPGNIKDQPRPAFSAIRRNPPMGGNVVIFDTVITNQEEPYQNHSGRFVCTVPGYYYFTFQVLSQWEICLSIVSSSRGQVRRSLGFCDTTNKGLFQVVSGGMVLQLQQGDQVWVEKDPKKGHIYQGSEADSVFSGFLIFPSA
T1 sequence (P02746 28-253 limits assumed, chain 2 of 3): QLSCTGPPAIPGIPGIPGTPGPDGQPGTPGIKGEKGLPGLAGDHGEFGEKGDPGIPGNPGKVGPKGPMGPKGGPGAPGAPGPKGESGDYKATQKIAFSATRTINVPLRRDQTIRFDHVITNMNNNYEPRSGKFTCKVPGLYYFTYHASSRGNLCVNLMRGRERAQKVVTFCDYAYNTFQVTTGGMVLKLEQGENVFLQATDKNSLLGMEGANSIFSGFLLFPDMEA
T1 sequence (P02747 29-245 limits assumed, chain 3 of 3): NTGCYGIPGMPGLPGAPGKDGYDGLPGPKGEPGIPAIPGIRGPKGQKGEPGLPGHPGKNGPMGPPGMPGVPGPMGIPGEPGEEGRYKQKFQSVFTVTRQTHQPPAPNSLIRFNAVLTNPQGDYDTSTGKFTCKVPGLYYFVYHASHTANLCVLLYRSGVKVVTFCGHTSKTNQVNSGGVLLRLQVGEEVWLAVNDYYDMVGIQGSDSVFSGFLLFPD
T2 sequence (P98086 23-245 limits assumed, chain 1 of 3): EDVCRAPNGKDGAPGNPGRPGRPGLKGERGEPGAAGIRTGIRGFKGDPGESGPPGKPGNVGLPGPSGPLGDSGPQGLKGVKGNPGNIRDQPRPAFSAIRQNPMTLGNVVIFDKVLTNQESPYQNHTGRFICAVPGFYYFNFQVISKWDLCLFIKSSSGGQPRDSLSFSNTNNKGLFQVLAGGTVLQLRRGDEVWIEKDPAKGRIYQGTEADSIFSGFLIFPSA
T2 sequence (P14106 26-253 limits assumed, chain 2 of 3): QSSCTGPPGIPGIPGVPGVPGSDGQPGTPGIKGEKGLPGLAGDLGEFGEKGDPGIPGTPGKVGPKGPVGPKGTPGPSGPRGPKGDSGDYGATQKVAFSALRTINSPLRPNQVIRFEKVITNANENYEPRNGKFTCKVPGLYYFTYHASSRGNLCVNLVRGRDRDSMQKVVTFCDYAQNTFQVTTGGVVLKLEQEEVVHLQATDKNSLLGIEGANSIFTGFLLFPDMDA
T2 sequence (Q02105 30-246 limits assumed, chain 3 of 3): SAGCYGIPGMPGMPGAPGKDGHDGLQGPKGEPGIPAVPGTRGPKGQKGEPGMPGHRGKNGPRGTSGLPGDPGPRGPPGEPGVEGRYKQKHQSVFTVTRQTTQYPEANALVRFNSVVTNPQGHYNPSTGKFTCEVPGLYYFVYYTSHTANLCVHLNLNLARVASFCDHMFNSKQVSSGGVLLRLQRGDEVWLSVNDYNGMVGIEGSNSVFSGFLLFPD

B1: humanized anti-C1q antibody VH2/Vκ2 (antibody, human IgG4)
heavy: not shown
light: DVQITQSPSSLSASLGERATINCRASKSINKYLAWYQQKPGKANKLLIYSGSTLQSGIPARFSGSGSGTDFTLTISSLEPEDFAMYYCQQHNEYPLTFGQGTKLEIK
notes: Full-length human IgG4 (S241P L248E) / human kappa, expressed in NS0, Protein A purified; not shown: human kappa light chain constant region
- IC50 (read off the curve) (human C1q [1]): ~0.3 mg/L
- Relative IC50 (human C1q [2]): 1.12 ratio to chimeric M1

B2: humanized anti-C1q antibody VH1/Vκ2 (antibody, human IgG4)
heavy: not shown
light: B1 light
notes: as for B1
- Relative IC50 (human C1q [2]): 0.84 ratio to chimeric M1
- IC50 (read off the curve) (human C1q [3]): ~0.3 mg/L

B3: humanized anti-C1q antibody VH3/Vκ2 (antibody, human IgG4)
heavy: not shown
light: B1 light
notes: as for B1
- IC50 (read off the curve) (human C1q [4]): ~0.3 mg/L
- Relative IC50 (human C1q [2]): 0.82 ratio to chimeric M1

B4: humanized anti-C1q antibody VH1/Vκ1 (antibody, human IgG4)
heavy: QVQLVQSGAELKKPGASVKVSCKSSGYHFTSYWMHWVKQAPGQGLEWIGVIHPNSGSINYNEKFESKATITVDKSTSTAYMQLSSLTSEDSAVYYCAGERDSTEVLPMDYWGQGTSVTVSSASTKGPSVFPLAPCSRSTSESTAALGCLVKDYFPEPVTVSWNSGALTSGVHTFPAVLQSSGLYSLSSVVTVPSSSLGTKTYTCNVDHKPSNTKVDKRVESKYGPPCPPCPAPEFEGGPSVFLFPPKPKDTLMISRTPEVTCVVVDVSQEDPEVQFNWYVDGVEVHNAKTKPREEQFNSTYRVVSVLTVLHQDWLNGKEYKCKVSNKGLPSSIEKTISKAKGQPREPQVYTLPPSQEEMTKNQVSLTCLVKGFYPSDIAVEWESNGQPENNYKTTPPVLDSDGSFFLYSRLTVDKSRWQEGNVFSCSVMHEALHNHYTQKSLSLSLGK
light: B1 light with S10Y, S12A, A43T
notes: Full-length human IgG4 (S241P L248E) / human kappa, expressed in NS0, Protein A purified; also called 2B12; not shown: human kappa light chain constant region
- Relative IC50 (mouse C1q [5]): 1.62 ratio to chimeric M1
- Relative IC50 (human C1q [2]): 0.9 ratio to chimeric M1
- IC50 (read off the curve) (mouse C1q [6]): ~5 mg/L
- IC50 (read off the curve) (human C1q [3]): ~0.3 mg/L
- amount of antibody required to inhibit approximately 50% to approximately 80% of rat CH50 hemolysis (rat C1q): ~60 ng
- amount of antibody required to inhibit 50% of human CH50 hemolysis (human C1q [7]): ~60 ng

B5: humanized anti-C1q antibody VH4/Vκ1 (antibody, human IgG4)
heavy: not shown
light: B1 light with S10Y, S12A, A43T
notes: as for B1
- Relative IC50 (human C1q [2]): 1.03 ratio to chimeric M1
- IC50 (read off the curve) (human C1q [8]): ~0.3 mg/L

B6: humanized anti-C1q antibody VH3/Vκ3 (full-length IgG) (antibody)
heavy: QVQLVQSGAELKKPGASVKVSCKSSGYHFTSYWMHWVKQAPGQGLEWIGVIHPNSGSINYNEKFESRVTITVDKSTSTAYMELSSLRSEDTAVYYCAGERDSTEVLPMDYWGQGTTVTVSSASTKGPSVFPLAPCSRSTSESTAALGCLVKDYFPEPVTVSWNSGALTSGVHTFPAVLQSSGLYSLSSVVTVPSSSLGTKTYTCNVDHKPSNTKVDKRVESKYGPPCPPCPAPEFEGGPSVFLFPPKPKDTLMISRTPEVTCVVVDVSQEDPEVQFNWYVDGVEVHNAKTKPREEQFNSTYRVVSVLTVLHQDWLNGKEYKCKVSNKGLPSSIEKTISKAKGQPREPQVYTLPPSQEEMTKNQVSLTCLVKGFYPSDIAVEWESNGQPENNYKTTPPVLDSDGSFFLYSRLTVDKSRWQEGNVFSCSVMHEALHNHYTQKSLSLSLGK
light: B1 light with N44P
notes: Full-length human IgG4 (S241P L248E) / human kappa, expressed in NS0; also called IgG VH3/Vκ3; IgG-VH3/Vκ3; not shown: human kappa light chain constant region
- Kd (human C1q [9]): 5.8 pM
- koff (human C1q [9]): 5.8e-06 s⁻¹
- kon (human C1q [9]): 1e+06 M⁻¹ s⁻¹
- Kd (human C1q [10]): 7.9 pM
- koff (human C1q [10]): 3.1e-07 s⁻¹
- kon (human C1q [10]): 39000 M⁻¹ s⁻¹
- Kd (human C1q [11]): 4.9 pM
- koff (human C1q [11]): 5.1e-06 s⁻¹
- kon (human C1q [11]): 1.1e+06 M⁻¹ s⁻¹
- koff (human C1q [12]): 1.1e-07 s⁻¹
- koff (human C1q [13]): 4.6e-06 s⁻¹
- Relative IC50 (mouse C1q [5]): 1.5 ratio to chimeric M1
- IC50 (read off the curve) (human C1q [4]): ~0.2 mg/L
- Kd (human C1q [14]): 22700 pM
- Kd (human C1q [15]): 6.7 pM
- koff (human C1q [15]): 6.4e-06 s⁻¹
- kon (human C1q [15]): 960000 M⁻¹ s⁻¹
- Relative IC50 (human C1q [2]): 0.63 ratio to chimeric M1
- IC50 (read off the curve) (mouse C1q [6]): ~5 mg/L
- amount of antibody required to inhibit approximately 50% to approximately 80% of rat CH50 hemolysis (rat C1q): ~60 ng
- amount of antibody required to inhibit 50% of human CH50 hemolysis (human C1q [7]): ~60 ng
- kon (human C1q [16]): 16000 M⁻¹ s⁻¹
- Kd (human C1q [17]): 7300 pM
- kon (human C1q [18]): 200000 M⁻¹ s⁻¹

B7: humanized anti-C1q antibody VH3/Vκ1 (antibody, human IgG4)
heavy: not shown
light: B1 light with S10Y, S12A, A43T
notes: as for B1
- IC50 (read off the curve) (human C1q [4]): ~0.2 mg/L
- Relative IC50 (human C1q [2]): 0.65 ratio to chimeric M1

B8: humanized anti-C1q antibody VH2/Vκ3 (antibody, human IgG4)
heavy: not shown
light: B1 light with N44P
notes: as for B1
- IC50 (read off the curve) (human C1q [1]): ~0.2 mg/L
- Relative IC50 (human C1q [2]): 0.75 ratio to chimeric M1

B9: humanized anti-C1q antibody VH1/Vκ4 (antibody, human IgG4)
heavy: not shown
light: B1 light with V2I, I4L, N44P
notes: as for B1
- IC50 (read off the curve) (human C1q [1]): ~0.2 mg/L
- Relative IC50 (human C1q [2]): 0.8 ratio to chimeric M1

B10: humanized anti-C1q antibody VH4/Vκ4 (antibody, human IgG4)
heavy: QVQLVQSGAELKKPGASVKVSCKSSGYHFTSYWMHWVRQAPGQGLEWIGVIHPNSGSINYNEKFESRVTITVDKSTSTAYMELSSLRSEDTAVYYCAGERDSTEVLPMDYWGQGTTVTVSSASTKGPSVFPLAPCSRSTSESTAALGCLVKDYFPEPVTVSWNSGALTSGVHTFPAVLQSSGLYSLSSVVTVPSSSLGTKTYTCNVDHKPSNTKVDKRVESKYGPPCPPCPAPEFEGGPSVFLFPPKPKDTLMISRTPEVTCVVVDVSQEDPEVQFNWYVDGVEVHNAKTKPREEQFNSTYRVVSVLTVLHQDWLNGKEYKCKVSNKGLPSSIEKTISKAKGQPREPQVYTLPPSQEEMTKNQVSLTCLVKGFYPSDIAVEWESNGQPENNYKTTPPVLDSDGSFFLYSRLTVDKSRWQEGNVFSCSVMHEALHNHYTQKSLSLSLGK
light: B1 light with V2I, I4L, N44P
notes: as for B1
- Relative IC50 (human C1q [2]): 0.92 ratio to chimeric M1
- IC50 (read off the curve) (human C1q [8]): ~0.2 mg/L

B11: humanized anti-C1q antibody VH2/Vκ1 (antibody, human IgG4)
heavy: not shown
light: B1 light with S10Y, S12A, A43T
notes: as for B1
- IC50 (read off the curve) (human C1q [1]): ~0.3 mg/L
- Relative IC50 (human C1q [2]): 1.15 ratio to chimeric M1

B12: humanized anti-C1q antibody VH3/Vκ4 (antibody, human IgG4)
heavy: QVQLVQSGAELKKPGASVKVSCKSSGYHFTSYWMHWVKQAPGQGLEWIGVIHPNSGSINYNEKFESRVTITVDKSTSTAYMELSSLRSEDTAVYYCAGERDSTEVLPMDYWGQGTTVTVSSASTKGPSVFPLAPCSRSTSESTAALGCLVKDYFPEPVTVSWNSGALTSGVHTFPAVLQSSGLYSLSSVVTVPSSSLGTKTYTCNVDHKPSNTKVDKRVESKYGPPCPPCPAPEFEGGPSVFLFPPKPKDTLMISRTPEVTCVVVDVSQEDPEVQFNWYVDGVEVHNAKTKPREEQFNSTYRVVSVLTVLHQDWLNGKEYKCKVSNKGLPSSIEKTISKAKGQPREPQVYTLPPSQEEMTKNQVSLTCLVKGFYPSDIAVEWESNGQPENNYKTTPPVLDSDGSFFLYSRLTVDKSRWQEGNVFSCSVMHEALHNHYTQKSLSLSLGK
light: B1 light with V2I, I4L, N44P
notes: Full-length human IgG4 (S241P L248E) / human kappa, expressed in NS0, Protein A purified; also called 3F1; not shown: human kappa light chain constant region
- Relative IC50 (mouse C1q [5]): 1.91 ratio to chimeric M1
- IC50 (read off the curve) (human C1q [4]): ~0.3 mg/L
- Relative IC50 (human C1q [2]): 0.83 ratio to chimeric M1
- IC50 (read off the curve) (mouse C1q [6]): ~6 mg/L
- amount of antibody required to inhibit approximately 50% to approximately 80% of rat CH50 hemolysis (rat C1q): ~60 ng

B13: humanized anti-C1q antibody VH2/Vκ4 (antibody, human IgG4)
heavy: not shown
light: B1 light with V2I, I4L, N44P
notes: as for B1
- IC50 (read off the curve) (human C1q [1]): ~0.2 mg/L
- Relative IC50 (human C1q [2]): 0.72 ratio to chimeric M1

B14: humanized anti-C1q antibody VH1/Vκ3 (antibody, human IgG4)
heavy: not shown
light: B1 light with N44P
notes: as for B1
- Relative IC50 (human C1q [2]): 0.91 ratio to chimeric M1
- IC50 (read off the curve) (human C1q [3]): ~0.3 mg/L

B15: humanized anti-C1q antibody VH4/Vκ3 (antibody, human IgG4)
heavy: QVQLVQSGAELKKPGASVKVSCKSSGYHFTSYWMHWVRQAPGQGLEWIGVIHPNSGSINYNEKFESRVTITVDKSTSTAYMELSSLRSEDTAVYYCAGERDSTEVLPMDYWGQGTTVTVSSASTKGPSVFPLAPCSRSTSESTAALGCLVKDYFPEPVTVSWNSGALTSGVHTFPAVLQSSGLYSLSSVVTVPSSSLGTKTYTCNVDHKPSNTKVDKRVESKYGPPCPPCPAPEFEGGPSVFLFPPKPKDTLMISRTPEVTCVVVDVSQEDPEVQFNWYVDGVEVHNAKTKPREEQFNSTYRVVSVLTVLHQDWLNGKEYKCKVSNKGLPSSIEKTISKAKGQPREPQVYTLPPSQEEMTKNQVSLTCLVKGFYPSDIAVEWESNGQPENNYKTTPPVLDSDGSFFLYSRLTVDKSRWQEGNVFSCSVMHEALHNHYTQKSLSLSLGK
light: B1 light with N44P
notes: Full-length human IgG4 (S241P L248E) / human kappa, expressed in NS0, Protein A purified; also called 1D3; not shown: human kappa light chain constant region
- Relative IC50 (mouse C1q [5]): 1.84 ratio to chimeric M1
- Relative IC50 (human C1q [2]): 0.77 ratio to chimeric M1
- IC50 (read off the curve) (mouse C1q [6]): ~6 mg/L
- amount of antibody required to inhibit approximately 50% to approximately 80% of rat CH50 hemolysis (rat C1q): ~60 ng
- amount of antibody required to inhibit 50% of human CH50 hemolysis (human C1q [7]): ~60 ng
- IC50 (read off the curve) (human C1q [8]): ~0.2 mg/L

B16: humanized anti-C1q antibody VH4/Vκ2 (antibody, human IgG4)
heavy: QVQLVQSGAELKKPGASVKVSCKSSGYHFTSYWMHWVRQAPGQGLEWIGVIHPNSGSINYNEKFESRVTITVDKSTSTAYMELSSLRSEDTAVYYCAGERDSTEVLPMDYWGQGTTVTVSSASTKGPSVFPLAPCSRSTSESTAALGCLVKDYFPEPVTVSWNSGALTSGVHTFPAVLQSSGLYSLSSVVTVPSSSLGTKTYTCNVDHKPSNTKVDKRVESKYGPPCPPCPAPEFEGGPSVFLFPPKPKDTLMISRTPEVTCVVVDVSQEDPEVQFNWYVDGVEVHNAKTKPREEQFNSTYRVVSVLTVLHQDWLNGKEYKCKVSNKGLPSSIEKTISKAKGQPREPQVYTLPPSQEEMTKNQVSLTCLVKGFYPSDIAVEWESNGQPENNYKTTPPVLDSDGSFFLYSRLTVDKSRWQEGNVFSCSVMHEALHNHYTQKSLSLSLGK
light: B1 light
notes: as for B1
- Relative IC50 (human C1q [2]): 0.84 ratio to chimeric M1
- IC50 (read off the curve) (human C1q [8]): ~0.2 mg/L
